Common to all, as to experiment: flow cytometry on cells; equilibrium titration: 100 nM to 300 pM recombinant integrin αvβ6 incubated with 10^5 yeast cells displaying the knottin plus 10^6 un-induced yeast cells; integrin binding buffer (25 mM Tris pH 7.4, 150 mM NaCl, 2 mM CaCl2, 1 mM MgCl2, 1 mM MnCl2, 0.1% BSA); fluorescein anti-αv antibody, binding normalised to cMyc expression
(In general: Flow cytometry measures light scatter and fluorescence of single cells or particles in a stream.)

The target in test [1] is R01 cystine knot peptide displayed on the yeast surface.
In test [2] the target is R01-MG cystine knot peptide displayed on the yeast surface.
Test [3] deals with R01-MR cystine knot peptide displayed on the yeast surface.

The results in this text go back to article PMC6791878, “Evaluation of integrin αvβ6 cystine knot PET tracers to detect cancer and idiopathic pulmonary fibrosis” (Nature Communications, 2019).

For orientation: Kd means the equilibrium constant for the complex coming apart. As to “Recombinant human integrin αvβ6 (from UniProt P06756 31-1048; P18564 22-709) (complex)”, the Kd in test [1] was determined as 1 nM; in test [2], 1.24 nM; in test [3], 1 nM.
